Test results as given in patent US20140274782A1 (Stanford University, published 2014).

Tests used:
Assay in all cases: ProtoArray, GST-treated control array;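 further: human protein microarray (about 9500 recombinant proteins) incubated overnight with GST alone plus SAM cofactor as the negative control for G9a SET domain methylation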
[1] = target: T1, Magmas-mitochondria-associated protein involved in granulocyte-macrophage colony-stimulating factor signal … (human, UniProt Q9Y3D7 1-125)
T1 sequence (looked up): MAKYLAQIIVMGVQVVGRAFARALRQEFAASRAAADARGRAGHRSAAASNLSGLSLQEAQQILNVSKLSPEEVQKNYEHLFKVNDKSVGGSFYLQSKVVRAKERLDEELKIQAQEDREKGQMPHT

[2] = target: T2, SEC22B-Vesicle-trafficking protein SEC22b (human, UniProt O75396 1-215)
T2 sequence (looked up): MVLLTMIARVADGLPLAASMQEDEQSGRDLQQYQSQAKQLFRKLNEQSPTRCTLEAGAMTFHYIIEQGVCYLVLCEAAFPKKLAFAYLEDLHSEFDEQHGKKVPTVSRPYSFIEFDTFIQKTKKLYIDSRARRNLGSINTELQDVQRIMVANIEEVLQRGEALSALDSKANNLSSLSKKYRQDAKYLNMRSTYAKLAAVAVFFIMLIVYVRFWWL

[3] = target: T3, RAB33B-RAB33B, member RAS oncogene family (RAB33B) (human, UniProt Q9H082 1-229)
T3 sequence (looked up): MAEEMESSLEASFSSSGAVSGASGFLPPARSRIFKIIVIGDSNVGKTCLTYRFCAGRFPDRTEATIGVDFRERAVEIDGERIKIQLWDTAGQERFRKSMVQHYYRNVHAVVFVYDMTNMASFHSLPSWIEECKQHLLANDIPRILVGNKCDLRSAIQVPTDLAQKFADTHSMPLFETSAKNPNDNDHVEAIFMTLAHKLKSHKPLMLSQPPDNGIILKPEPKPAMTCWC

[4] = target: T4, CDKL5-Cyclin-dependent kinase-like 5 (human, UniProt O76039-1 1-1030, limits assumed)
T4 sequence (looked up): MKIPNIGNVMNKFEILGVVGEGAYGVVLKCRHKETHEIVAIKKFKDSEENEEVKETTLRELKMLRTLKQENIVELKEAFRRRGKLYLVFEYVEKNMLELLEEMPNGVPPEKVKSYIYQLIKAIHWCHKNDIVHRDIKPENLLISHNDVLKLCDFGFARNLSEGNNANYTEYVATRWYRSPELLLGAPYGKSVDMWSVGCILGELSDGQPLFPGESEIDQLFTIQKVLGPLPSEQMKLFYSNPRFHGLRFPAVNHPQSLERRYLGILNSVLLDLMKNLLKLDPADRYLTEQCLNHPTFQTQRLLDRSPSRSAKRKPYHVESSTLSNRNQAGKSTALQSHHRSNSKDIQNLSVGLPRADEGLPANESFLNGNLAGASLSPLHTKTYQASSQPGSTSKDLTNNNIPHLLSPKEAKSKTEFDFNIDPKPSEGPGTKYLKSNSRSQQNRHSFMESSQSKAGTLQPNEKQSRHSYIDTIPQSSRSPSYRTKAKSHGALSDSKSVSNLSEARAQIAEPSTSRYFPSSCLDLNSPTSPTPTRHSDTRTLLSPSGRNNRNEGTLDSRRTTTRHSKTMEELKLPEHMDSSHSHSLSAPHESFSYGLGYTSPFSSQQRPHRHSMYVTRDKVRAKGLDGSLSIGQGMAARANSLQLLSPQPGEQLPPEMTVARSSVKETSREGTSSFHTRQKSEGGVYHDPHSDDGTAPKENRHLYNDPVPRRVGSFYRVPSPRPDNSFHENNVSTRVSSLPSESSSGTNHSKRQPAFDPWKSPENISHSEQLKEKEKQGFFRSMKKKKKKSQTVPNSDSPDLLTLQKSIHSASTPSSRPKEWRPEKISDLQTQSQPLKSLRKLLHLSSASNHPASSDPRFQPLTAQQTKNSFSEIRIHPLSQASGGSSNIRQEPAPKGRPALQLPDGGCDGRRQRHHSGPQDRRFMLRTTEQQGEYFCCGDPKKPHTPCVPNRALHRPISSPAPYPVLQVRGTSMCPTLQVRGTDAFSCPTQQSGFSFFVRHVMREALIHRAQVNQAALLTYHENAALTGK

[5] = target: T5, CSF3-Granulocyte colony-stimulating factor (human, UniProt P09919 31-207, limits assumed)
T5 sequence (looked up): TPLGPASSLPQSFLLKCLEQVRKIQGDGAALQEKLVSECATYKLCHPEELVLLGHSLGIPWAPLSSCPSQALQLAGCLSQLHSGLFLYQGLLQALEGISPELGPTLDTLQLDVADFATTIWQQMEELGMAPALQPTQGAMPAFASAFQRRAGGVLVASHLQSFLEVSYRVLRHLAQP

[6] = target: T6, CRYZL1-crystallin, zeta (quinone reductase)-like 1 (CRYZL1) (human, UniProt O95825 1-349, limits assumed)
T6 sequence (looked up): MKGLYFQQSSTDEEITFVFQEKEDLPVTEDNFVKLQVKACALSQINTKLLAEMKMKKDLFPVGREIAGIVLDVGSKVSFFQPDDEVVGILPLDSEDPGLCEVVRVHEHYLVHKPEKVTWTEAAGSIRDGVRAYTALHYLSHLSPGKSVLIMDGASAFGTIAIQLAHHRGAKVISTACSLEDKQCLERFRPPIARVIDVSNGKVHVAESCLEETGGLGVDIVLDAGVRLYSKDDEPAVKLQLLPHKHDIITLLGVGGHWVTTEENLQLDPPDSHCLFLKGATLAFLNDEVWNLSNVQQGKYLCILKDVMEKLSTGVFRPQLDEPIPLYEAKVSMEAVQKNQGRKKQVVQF

[7] = target: T7, RDH11-retinol dehydrogenase 11 (all-trans/9-cis/11-cis) (RDH11) (human, UniProt Q8TC12 1-318, limits assumed)
T7 sequence (looked up): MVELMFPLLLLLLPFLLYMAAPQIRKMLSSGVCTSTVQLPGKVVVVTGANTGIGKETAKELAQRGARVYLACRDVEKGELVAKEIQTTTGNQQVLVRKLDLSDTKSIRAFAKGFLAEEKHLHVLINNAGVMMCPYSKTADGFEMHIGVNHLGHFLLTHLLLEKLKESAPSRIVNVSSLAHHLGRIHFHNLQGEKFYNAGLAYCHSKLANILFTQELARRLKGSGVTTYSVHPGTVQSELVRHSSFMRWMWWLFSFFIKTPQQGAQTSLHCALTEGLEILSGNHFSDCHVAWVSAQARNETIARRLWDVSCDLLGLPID

GST Average SNR [1]: -1.16
GST Average SNR [2]: -0.797
GST Average SNR [3]: 0.0035
GST Average SNR [4]: 1.43
GST Average SNR [5]: 1.27
GST Average SNR [6]: -1.42
GST Average SNR [7]: 0.0685
B1: 3× Flag-3×MBT (designed binder)
chain: EEWSSSQPATGEKKECWSWESYLEEQKAITAPVSLFQDSQAVTHNKNGFKLGMKLEGIDPQHPSMYFILTVAEVCGYRLRLHFDGYSECHDFWVNANSPDIHPAGWFEKTGHKLQPPKGYKEEEFSWSQYLRSTRAQAAPKHLFVSQSHSPPPLGFQVGMKLEAVDRMNPSLVCVASVTDVVDSRFLVHFDNWDDTYDYWCDPSSPYIHPVGWCQKQGKPLTPPQDYPDPDNFCWEKYLEETGASAVPTWAFKVRPPHSFLVNMKLEAVDRRNPALIRVASVEDVEDHRIKIHFDGWSHGYDFWIDADHPDIHPAGWCSKTGHPLQPPLGPREPSSASPGG
notes: also called Flag-tagged 3×MBT; 3xFlag-3xMBT; not shown: made by PreScission cleavage of GST-3× Flag-3×MBT
